{"source": "FireProtDB (doi:10.1002/pro.164)", "parents": {"B1": {"name": "N52A, Q6T418 (parent)", "chain": "MERKTFSFLFLLLLVLASDVAVERGEARTCMIKKEGWGKCLIDTTCAHSCKNRGYIGGNCKGMTRTCYCLVNC"}}}
{"variants_of": "B1", "details": "Vigna radiata; pH 7; 37 °C; GdnHCl; Fluorescence; Tris-HCl 10 mM; NaCl 100 mM; structure 1TI5; whole UniProt chain shown", "units": {"denaturant midpoint (higher = more stable)": "M"}}
{"variant": "N52A", "denaturant midpoint (higher = more stable)": 3.49}
{"variant": "I32A", "denaturant midpoint (higher = more stable)": 2.93}
{"variant": "R65A", "denaturant midpoint (higher = more stable)": 2.97}
{"variant": "K39A", "denaturant midpoint (higher = more stable)": 2.48}
{"variant": "R53A", "denaturant midpoint (higher = more stable)": 2.76}
{"variant": "D43A", "denaturant midpoint (higher = more stable)": 2.96}
{"variant": "R28A", "denaturant midpoint (higher = more stable)": 3.29}
{"variant": "V71A", "denaturant midpoint (higher = more stable)": 3.14}
{"variant": "G57A", "denaturant midpoint (higher = more stable)": 3.26}
{"variant": "H48A", "denaturant midpoint (higher = more stable)": 4.33}
{"variant": "N59A", "denaturant midpoint (higher = more stable)": 2.64}
{"variant": "Y68A", "denaturant midpoint (higher = more stable)": 3.73}
{"variant": "I56A", "denaturant midpoint (higher = more stable)": 3.32}
{"variant": "T45A", "denaturant midpoint (higher = more stable)": 4.5}
{"variant": "C30A C73A", "denaturant midpoint (higher = more stable)": 2.69}
{"variant": "K34A", "denaturant midpoint (higher = more stable)": 2.53}
{"variant": "G38A", "denaturant midpoint (higher = more stable)": 4.66}
{"variant": "G36A", "denaturant midpoint (higher = more stable)": 3.27}
{"variant": "T44A", "denaturant midpoint (higher = more stable)": 3.32}
{"variant": "T64A", "denaturant midpoint (higher = more stable)": 2.98}
{"variant": "K61A", "denaturant midpoint (higher = more stable)": 3.31}
{"variant": "T66A", "denaturant midpoint (higher = more stable)": 3.32}
{"variant": "K51A", "denaturant midpoint (higher = more stable)": 2.81}
{"variant": "M31A", "denaturant midpoint (higher = more stable)": 3.66}
{"variant": "G62A", "denaturant midpoint (higher = more stable)": 3.44}
{"variant": "K33A", "denaturant midpoint (higher = more stable)": 2.57}
{"variant": "L70A", "denaturant midpoint (higher = more stable)": 4.69}
{"variant": "S49A", "denaturant midpoint (higher = more stable)": 2.84}
{"variant": "Y55A", "denaturant midpoint (higher = more stable)": 3.1}
{"variant": "I42A", "denaturant midpoint (higher = more stable)": 3.87}
{"variant": "M63A", "denaturant midpoint (higher = more stable)": 3.88}
